Test results from the supplement of paper PMC12042874.
± gives the uncertainty stated by the source.

Assay: amyloid nucleation score (Sup35N fusion, yeast selection) (log enrichment); library NNK1; higher = more nucleation; inactive = no reads after selection
How it was run: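 Output and input plasmid inserts were sequenced by Illumina after psi-negative yeast carrying Sup35N fused to peptides of 20 random codons had been induced 24 hours with 100 μM copper sulfate and grown 7 days at 30°C on medium lacking adenine and uracil. The nucleation score is the DiMSum log enrichment of output over input reads, centred on the mode score of non-aggregating sequences. Sequences with under 100 input reads were excluded.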

Substance | amyloid nucleation score
GLWHAC | inactive
SICFYSLNSTPSLVGSWWGG | 1.3 ± 0.85
VSGLAGPEM | 0.412 ± 0.56
YFLLPYADRIHHLSVNCFWM | -0.008 ± 0.93
RLNHEFFGYKRKTKLAGGLR | -0.107 ± 1.2
VISGSDVLRYPRYSNAAFRT | inactive
GLMLHCGGLCWLLVVV | -0.539 ± 0.41
RSTISGWR | inactive
VICSHLVSITYYLY | 3.59 ± 0.057
YKIVIKSGQSAN | -0.252 ± 0.28
LCMNCVIQSDKRSSLLCYER | -0.636 ± 1.2
RSFVLLGFPSY | -0.882 ± 0.66
FMSICPSTNGRCACRWLRM | 0.857 ± 0.98
IYINVP | 0.764 ± 0.38
HISLHYYKICNRFDLYNKDS | 7.107 ± 0.065
HDLEIPICTWEYSVVIQGLQ | 0.005 ± 1.4
DEDDSD | 0.471 ± 0.46
LTWHRLSISHTVAYLSTDSI | inactive
LLRFTCSILLRA | 0.437 ± 0.79
TQIAESYLVQANNSAEATAA | -0.32 ± 1.4
FYVMCSARSQHAFSNKYLGY | -0.165 ± 0.26
CNSLTLFRWYFNMVGNIQAN | -0.143 ± 0.37
TFMLATDGV | 0.595 ± 0.69
TVSLGVAAVMFPR | 0.95 ± 0.36
IKMYACMYWLVEFLVN | -0.046 ± 0.86

Substance | amyloid nucleation score
MWTNWDVLPELDGTPRALLW | -0.501 ± 0.99
NRAMQVFPI | inactive
NSWQLFYLCSQLIRKSSTLC | 0.029 ± 0.37
LGDVSRYFCCIQGNNYRM | 5.51 ± 0.057
VCIECTVAVKFHGYMRHSCC | 1.09 ± 0.54
THVSDFLWDVNVSGNNTCSR | 1.14 ± 0.37
STFSSVTGYKPCY | 0.551 ± 1.2
RQPVRAMHLDISVRWSYWSV | 2.79 ± 0.12
RLLFLMSWSSVVWINCRVWS | 0.657 ± 0.6
KRRVSLCMPWVGSDRRVFMG | 0.377 ± 0.31
MLHICCFQSVHLMDWSSH | -0.144 ± 0.67
VHSVLKWLRWDSIPCIVLIR | -0.487 ± 0.32
FYGTLVCVRRYSVVLNSNLE | 0.751 ± 0.93
GVVTLFTEYSSEPCRCGFRQ | -0.21 ± 0.53
ARYRYVTVYQV | -0.725 ± 0.35
LIFLLSQSIVVMQWSGRKKQ | inactive
DIRIPMHLSIDLQVVLSLRY | 0.172 ± 0.63
HLKHVWSYLPSSNVEEMQ | 0.766 ± 0.63
MLGLWIVARLVLSVDSQRVE | inactive
SSNYADNEGSAHQFGNRRES | -0.108 ± 0.43
LYCSNLILVWLFCRSDISVR | 5.17 ± 0.056
STVTTAYNDMSLIWQAARVL | 0.436 ± 0.57
PLTFSCSLGKGFTWYFCLNV | -0.196 ± 0.45
SCVRCQLS | 7.454 ± 0.05
GLGLCRVE | -0.373 ± 0.38

Substance | amyloid nucleation score
TVNHFGLEPCVTKIMGLY | 0.213 ± 0.74
FMYILYYDMWYACASFR | inactive
ESAFHASVGALRMHTSSRVC | 1.09 ± 0.35
ESTAQSEV | -0.237 ± 0.42
GYLQR | 0.158 ± 0.59
RVVLGTGDLVSCRFIFSLEK | -1.25 ± 0.44
RSHAIHVYKQLCHRVVFIWL | 1.39 ± 0.46
NVNEDRPAGALVLEFLNRTL | 1.47 ± 0.69
TRLCWFWFNA | 0.066 ± 0.41
IPNISGYPHICMESGGSLVC | 0.004 ± 0.61
CFRDGYSKLCGCYVSMRTGH | 0.459 ± 0.53
VSPMWVGYSRTSKLW | 0.036 ± 0.26
VNLNVFLRR | 0.059 ± 0.45
QVVPC | -0.153 ± 0.66
RTMKRSLSCVHCLLCLSPCQ | -0.102 ± 0.29
GWNHWADTSGTLGK | 0.502 ± 0.73
SYYRLGACSRCHYFFMIEAR | inactive
WMTHWVLSYTTNLLIWVHGW | 0.005 ± 1.2
FTQRSSVR | 0.651 ± 0.7
FSWTYVYYNN | 0.433 ± 0.89
FSDVQCG | inactive
LTLICSSGEC | 2.14 ± 0.17
CSSIWHCPVYDVITLM | 0.282 ± 0.75
SLSYFSSFI | inactive
DIFVLMRAMWHRGMI | 0.857 ± 0.8

Substance | amyloid nucleation score
FTCMCH | inactive
CVDCALQFLGCRVGALLTRG | -0.875 ± 1.7
PGSIYMSPGCGYIQAVRDHI | -0.205 ± 0.35
YFWMIPMTGEVHNCPDLAPK | 0.386 ± 0.33
QLSTISFLQWSGSACSSTVH | -0.49 ± 0.74
AFVLDIYMGMRSRYNDAPS | 1.78 ± 0.31
YSLIVTRCC | -0.468 ± 0.41
ISYQVLFIDRWGCRSLPCVW | 0.395 ± 0.39
WSCLSSLRDLGNGGYMM | 0.05 ± 0.62
CFNTRHRVQELRL | -0.224 ± 1.7
LTLLA | -0.096 ± 1.7
YFSVGSCNRYLHWTVQ | 5.06 ± 0.075
MMVFKVSFKVIKVT | -0.07 ± 0.86
VGWLRFIRWYDPRLENWRTG | 0.235 ± 0.78
EFVLGGASRVELY | -0.624 ± 0.64
RSYCKRALMLDWFAISRMRL | 0.082 ± 0.51
TTRAHEVDTYLYFHFGVGRT | 2.84 ± 0.17
TGTPYLLHLNWNLGSGMSGT | 0.451 ± 0.2
SEHVIIGRRDFV | -0.018 ± 1
VECVSVQRFGAQCLSCYPSW | -0.07 ± 0.55
FVMRAFNLIRWVGSACNLET | inactive
NCRGKREMGRKSSRSLVHGW | -0.039 ± 0.49
VSYYCAQALVLRIPEEWATE | -0.168 ± 1.3
VSLMCVALYKQISTRI | 0.102 ± 0.51
TNVVRVSLCFYMY | 8.776 ± 0.069

Substance | amyloid nucleation score
RLMVRGLDGKTFHSFFDSIL | inactive
VDPAD | 0.553 ± 0.43
YWTDGLFGDAT | 0.141 ± 0.31
VRCLLRYLLLESPQFINV | 1.7 ± 0.36
WLTKSEN | -0.151 ± 0.27
FGLRFAHAHLINWPWMLSGS | 0.047 ± 0.76
HHWNLIEHYMLDECMEHLNS | -0.183 ± 0.31
FSSNLLECRCLWKTQASNST | 0.271 ± 0.33
VGVGFIHNLGTLEIQVT | -0.359 ± 0.36
AYSRNYYQYAVNEFGDVVFE | 0.312 ± 1.1
ALIFYRFLL | 0.863 ± 0.41
MNYVSMHDYYRVVH | 0.128 ± 0.61
ALPHSKFKAMVFRSLWRDRG | 0.51 ± 1.2
QKPTMFGA | -0.338 ± 0.28
GLGTAYIGLCWHTIWHAAGV | 1.46 ± 0.16
DNAYPHPCSIYYNNNQFLRF | 6.734 ± 0.054
WVHVCGGHCNWLICSMASNG | 7.889 ± 0.061
DYYYSFMKTANR | -0.087 ± 0.3
SYPFWYSHMIHCYRFAIFGL | -2.73 ± 2.4
LIGRRGLHYLF | -0.186 ± 1.9
TRTESVMVLWRRMAVGGCGR | 0.362 ± 0.65
LMVISYRCDATGRRRVSLD | 0.867 ± 0.25
LFVNFGTLS | 0.391 ± 0.41
AAVRALLYRCVVHVRFFFKE | 1.06 ± 0.54
NSHLVFMGMLFLRISDDFVR | -0.083 ± 1.4

Substance | amyloid nucleation score
YRMVCVLITVPANQIYCLLH | 0.541 ± 0.69
FCLNHHMVLYSIRRWNVFVY | -2.16 ± 2.7
EIQGNLNILSLLGLSRRSKG | 0.016 ± 0.72
SHIMRRFLWVELAQ | -1.18 ± 1.1
SGSRGMFSKCVDK | 1.86 ± 0.1
TDSAVRDWTRR | 0.532 ± 0.79
RTDFLMFIGCVMNKICTLKA | 0.73 ± 0.33
ATVSDF | -0.478 ± 0.36
CFVVYGQTPSTVPRINAVLS | 6.46 ± 0.069
CIILKTIPIIDY | inactive
GLVLTIWHLRTAEERIVYRA | 1.58 ± 0.26
DIHNRDCVLYDRLDRHVYMK | -0.083 ± 0.31
HGRQE | 0.184 ± 1
PFHLF | 0.831 ± 0.39
FRELVDERLRRASQFHWFHF | 0.557 ± 0.8
WQCDLNDLLVCTFSMLGYGR | -1.05 ± 1.7
LSSRFAWCIWGET | 0.956 ± 0.73
SRGITRQFESHTCAEHRCGS | -0.252 ± 0.97
GNYSG | inactive
SNEVSGLVCQLTNVVYLLGL | 4.89 ± 0.052
RIYTYSNCVGLKLAFTFAYR | 0.642 ± 0.36
CGKPPFGNYWGTWCKIVVTL | 0.746 ± 0.62
TLIGFWPTRSFSSAVRYNPN | -0.116 ± 1
FAVSIVSFLRASVVDWVWYT | -0.209 ± 0.66
VPNVGYI | 0.369 ± 0.54

Substance | amyloid nucleation score
NPWVWTLSIEQGRNE | 0.074 ± 0.34
PWRCLM | inactive
RFCRHEMVFVLDLNTYISVP | 0.887 ± 0.26
SWNLGADIAMDDHVESV | 0.601 ± 0.39
MWFRTAST | 6.339 ± 0.047
THVIRVGNQRSLRVFSRGVS | 1.32 ± 0.41
IMKLYPLRQSG | 0.453 ± 1.2
FCAEEGVTRLNPKL | -0.023 ± 0.47
RNINLANHGCSSISLVYLPS | 2.8 ± 0.21
GFLNYHWAGSYFERGM | 3.04 ± 0.13
YYCRNPRSMG | -0.134 ± 1.1
SDYILCIPWPSGLS | 0.734 ± 0.97
TATGGASETERTAVTMY | -0.609 ± 1.9
TFVGLRVSAHRTQWALGDT | -1.51 ± 2.4
SSLVVAWF | 0.219 ± 0.21
RVIILMFTHRTCNS | -1.07 ± 2.7
LVMCFVMGMLNLDAGLIMRM | 0.425 ± 0.37
LAWCNY | 0.765 ± 0.57
LDVLLLLMDCSRYPKIKGGI | -0.012 ± 0.43
RDNKLSVAVVMQSYSVGESG | -0.034 ± 0.89
SCATVPCKM | 0.53 ± 0.63
TVVTYVRNNFKEVHSCVEVS | -0.607 ± 0.47
WRQWKTLTARLTAMKA | -0.178 ± 0.33
MSMDWICVTTYKAWSARLER | 0.689 ± 0.26
GVGVLLSYSELFDSTIEGPT | 0.664 ± 0.59
